One substance from patent US20170283830A1 can be followed below.

The target of the experiment is CD117 (mast/stem cell growth factor receptor, proto-oncogene c-Kit protein) on CD117+ mouse bone marrow cells (mouse) (UniProt P05532). Description: cell-based or functional assay.
Chain of UniProt P05532 (P05532 25-979): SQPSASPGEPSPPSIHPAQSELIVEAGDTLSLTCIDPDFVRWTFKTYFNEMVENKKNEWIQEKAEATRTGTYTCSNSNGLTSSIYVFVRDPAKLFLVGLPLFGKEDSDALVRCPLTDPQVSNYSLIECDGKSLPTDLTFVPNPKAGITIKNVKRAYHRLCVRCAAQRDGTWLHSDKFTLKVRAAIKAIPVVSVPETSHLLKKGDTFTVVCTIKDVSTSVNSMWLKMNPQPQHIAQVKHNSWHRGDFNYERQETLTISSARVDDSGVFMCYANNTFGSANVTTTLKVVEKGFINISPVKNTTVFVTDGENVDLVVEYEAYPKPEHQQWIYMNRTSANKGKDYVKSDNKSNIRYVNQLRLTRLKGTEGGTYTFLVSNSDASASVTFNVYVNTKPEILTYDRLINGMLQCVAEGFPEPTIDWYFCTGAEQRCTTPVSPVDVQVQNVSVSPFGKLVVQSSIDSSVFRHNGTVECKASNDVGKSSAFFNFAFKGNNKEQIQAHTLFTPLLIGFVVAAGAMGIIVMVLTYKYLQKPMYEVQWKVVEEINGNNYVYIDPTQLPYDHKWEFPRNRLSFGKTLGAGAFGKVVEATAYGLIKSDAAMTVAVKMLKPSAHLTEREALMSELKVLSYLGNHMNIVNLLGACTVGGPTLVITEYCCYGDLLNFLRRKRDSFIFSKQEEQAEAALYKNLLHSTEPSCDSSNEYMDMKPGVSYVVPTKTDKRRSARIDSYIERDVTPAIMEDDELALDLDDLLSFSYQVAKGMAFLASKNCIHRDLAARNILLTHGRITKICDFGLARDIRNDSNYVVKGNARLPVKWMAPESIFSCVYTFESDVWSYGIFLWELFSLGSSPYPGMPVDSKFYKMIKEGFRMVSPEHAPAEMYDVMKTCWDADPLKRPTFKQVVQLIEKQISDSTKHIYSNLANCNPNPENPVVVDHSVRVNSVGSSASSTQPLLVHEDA

On to “Recombinant murine SCF, catalog #250-03, PeproTech (from UniProt P20826 26-189) (ligand)”, for which the HDR activity in CD117+ cells (recombination between reporter gene constructs) came out at 2 fold and the γtcPNA4/donor DNA-mediated gene editing in CD117+ cells (% GFP expressing cells, flow cytometry) was found to be 15%.
